According to CN117357474A (JIANGSU QUANXIN BIOMEDICAL CO LTD, dated 2024):

T1: human IL-36R on cells (HT29 reporter cells, HT29, A431, human PBMC) (human, UniProt Q9HB29 20-575)
T1 sequence (looked up): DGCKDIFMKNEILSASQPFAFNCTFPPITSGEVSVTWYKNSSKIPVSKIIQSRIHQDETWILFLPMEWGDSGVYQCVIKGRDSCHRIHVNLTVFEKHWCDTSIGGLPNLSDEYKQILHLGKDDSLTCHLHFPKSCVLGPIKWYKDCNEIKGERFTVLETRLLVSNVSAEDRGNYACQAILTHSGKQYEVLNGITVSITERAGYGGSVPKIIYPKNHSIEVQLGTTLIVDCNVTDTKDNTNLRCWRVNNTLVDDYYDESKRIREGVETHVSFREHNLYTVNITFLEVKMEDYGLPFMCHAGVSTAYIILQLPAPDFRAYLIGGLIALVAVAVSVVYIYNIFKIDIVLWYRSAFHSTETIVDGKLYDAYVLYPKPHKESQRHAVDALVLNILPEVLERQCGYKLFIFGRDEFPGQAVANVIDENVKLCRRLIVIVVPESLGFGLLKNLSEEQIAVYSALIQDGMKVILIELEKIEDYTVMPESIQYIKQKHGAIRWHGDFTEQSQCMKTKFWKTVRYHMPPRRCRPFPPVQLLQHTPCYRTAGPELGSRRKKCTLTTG

T2: 人白介素-36受体 (human IL-36R), soluble antigen in the Biacore assay (human)
T2 chain: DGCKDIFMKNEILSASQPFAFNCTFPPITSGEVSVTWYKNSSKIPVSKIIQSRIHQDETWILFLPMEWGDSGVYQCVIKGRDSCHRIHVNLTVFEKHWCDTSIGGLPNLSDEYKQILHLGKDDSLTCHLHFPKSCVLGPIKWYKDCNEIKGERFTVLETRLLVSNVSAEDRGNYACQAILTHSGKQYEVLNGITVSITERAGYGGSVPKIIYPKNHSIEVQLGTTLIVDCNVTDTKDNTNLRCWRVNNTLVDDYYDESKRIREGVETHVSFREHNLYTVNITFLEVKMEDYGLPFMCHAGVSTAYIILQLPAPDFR


Legend:
[1] = target: T1, human IL-36R on cells (HT29 reporter …); experiment: cell-based or functional assay
[2] = target: T2, 人白介素-36受体 (human IL-36R), soluble …; experiment: SPR, Biacore T200, antibody captured on Protein A chip, antigen in flow, 25°C, 1:1 model, mean of three runs

抑制人IL-36(α、β、γ)诱导A431细胞释放CXCL-1的IC50 [1] | 抑制人IL-36(α、β、γ)诱导A431细胞释放IL-8的IC50 [1] | 抑制人IL-36(α、β、γ)诱导HT29细胞释放CXCL-1的IC50 [1] | 抑制人IL-36(α、β、γ)诱导HT29细胞释放IL-8的IC50 [1] | 抑制人IL-36(α、β、γ)诱导的HT29报告基因细胞STAT3磷酸化活性的IC50 [1] | 抑制人IL-36β诱导的人PBMC细胞释放IL-8活性的IC50 [1] | Kd [2] | koff [2] | kon [2] | 抑制人IL-36(α、β、γ)诱导的HT29报告基因细胞STAT3磷酸化的IC50 [1] | 抑制人IL-36β诱导的人PBMC释放IL-8活性的IC50 [1] | Binder
4.12 ng/mL | 2.89 ng/mL | 2.21 ng/mL | 1.53 ng/mL | 2.16 ng/mL | 4.69 ng/mL | 0.313 nM | 3.58e-05 s⁻¹ | 114000 M⁻¹ s⁻¹ | – | – | QX009N(HZD25-54) (antibody, V domains shown) VH: EVQLVESGGGLVQPGGSLRLSCAASGIDLSNYAMGWVRQAPGKGLEWVGYISGGGSAYYASWAKGRFTISRDNSKNTLYLQMNSLRAEDTAVYYCARWAIKSYFFGMDLWGQGTLVTVSS VL: DIQMTQSPSSVSASVGDRVTITCQASEYISSYLAWYQQKPGKAPKLLIYQASTLASGVPSRFSGSGSGTDFTLTISSLQPEDFATYYCQTNNAIHTYGGAFGGGTKVEIK
22.5 ng/mL | 16 ng/mL | 12.3 ng/mL | 11.5 ng/mL | – | – | 0.862 nM | 3.11e-05 s⁻¹ | 36000 M⁻¹ s⁻¹ | 15.7 ng/mL | 26.6 ng/mL | Spesolimab (self-made from the B6 sequence of US9023995B2) (antibody, V domains shown) VH: QVQLVQSGAEVKKPGASVKVSCKASGYSFTSSWIHWVKQAPGQGLEWMGEINPGNVRTNYNENFRNKVTMTVDTSISTAYMELSRLRSDDTAVYYCTVVFYGEPYFPYWGQGTLVTVSS VL: QIVLTQSPGTLSLSPGERATMTCTASSSVSSSYFHWYQQKPGQAPRLWIYRTSRLASGVPDRFSGSGSGTDFTLTISRLEPEDAATYYCHQFHRSPLTFGAGTKLEIK
